Laboratory results reported in the supplement of paper PMC9170038.

System: MS2 coat protein
Assay: apparent KD of MS2 coat protein; designed switch direction (-1 OFF switch, 1 ON switch): -1; higher = weaker reporter binding
In short: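 Designed RNA switches sharing common flanks were transcribed on Illumina chips by stalled E. coli RNA polymerase. They were titrated with SNAP-549-labelled MS2 coat protein, from 0.7 or 1.5 nM doubling to 3 µM, in Tris-HCl pH 7.5 buffer with KCl, MgCl2, BSA, DTT, tRNA and Tween-20. Titrations ran without input, with 200 uM small-molecule ligand, or with an oligonucleotide input. The apparent KD of each design is the median over its clusters, after curve-fitting of normalised cluster fluorescence.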

[1] = Eterna round: R95, input ligand: FMN 200 uM
[2] = Eterna round: R95, input ligand: microRNA oligo, concentration not stated
[3] = Eterna round: R95, input ligand: none
[4] = input ligand: microRNA oligo, concentration not stated

Row | Sequence | apparent KD of MS2 coat protein (input ligand: FMN 200 uM) | apparent KD of MS2 coat protein (input ligand: none) | apparent KD of MS2 coat protein [1] | apparent KD of MS2 coat protein [2] | apparent KD of MS2 coat protein [3] | apparent KD of MS2 coat protein [4]
1 | UGAGCUUGAGGAUAUACAAGCUUGAGCUGAAAAGUUCGAGUACAUGAGGAUCACCCAUGUAGAAGGCGAGUUCG [-26.7, -25.2 kcal, A 31% 1bis and 1] (Eterna round: R97, puzzle: Exclusion 2) | 39.7 nM | 26 nM | – | – | – | –
2 | UUUAAUUUUUUUUUUUUACAAGCUUUUUGCUCGUCUUAUACAUGAGGAUCACCCAUGUGGGUGGGAGGUAAAUUAUC [JMF 78] (puzzle: Sensor v3, turn-off variant 2) | – | – | 63.7 nM | 26.1 nM | 82.6 nM | –
3 | ACAUGACUGCUAGGAUAUAGAUGACAUGAGGAUCACCCAUGUUAUCCCAUGUUGACGGAAACCGACUAGAAGGAGCAACAUAUG [Ex NG2 #8] (Eterna round: R96, puzzle: Exclusion NG 2) | 64.7 nM | 46.5 nM | – | – | – | 30.6 nM
4 | AUCAGCUCGUGAGGAUAUACAUCACUGCUUCGGCAGUGUAUUAAGAUCACAUGAGGAUCACCCAUGUAGAAGGCACGAGCUGAU [ENG2/2-A3] (Eterna round: R96, puzzle: Exclusion NG 2) | 437 nM | 38.3 nM | – | – | – | 31.7 nM
5 | UAAUAUAGUGUGAGGAUAUGCUGGUCGAUAGAUCAGCAGAAGGCACAUGAGGAUCACCCAUGUAAUAUAUUAAA [Mat - Exclusion 4 - JL Mod - D36] (puzzle: Brourd's mod of Exclusion 4) | – | – | 64.6 nM | 30.7 nM | 42.9 nM | –
6 | AGUGCGUAUGUGAGGAUAUGCUGGUCCUUGGAUCAGCAGAAGGCACAUGAGGAUCACCCAUGUGGUGUCGUACU [salish99_Bmod_Ex4_005] (puzzle: Brourd's mod of Exclusion 4) | – | – | – | 190 nM | – | –
7 | GCAGGUUAAGUCAGGAUAUACCUAUGGAUACAUAGGUAGAAGGGACAUGAGGAUCACCCAUGUGCCUCGCCUGC [Fiskers BMX 4 - 58] (puzzle: Brourd's mod of Exclusion 4) | – | – | – | 15.4 nM | – | –
8 | UGAUCUAGCGGAGGAUAUACAUGAGGAUCACCCAUGUAGAUGAGUGUACCGUAGUGCACUCUUGUGUAGAAGGCCGCUAGAUCU [JL ENG2 3.56] (Eterna round: R96, puzzle: Exclusion NG 2) | 24.8 nM | 16.7 nM | – | – | – | 12.6 nM
9 | CUUUCGUGAGGAUAUCAGUAGUAAAUAAAUAAAAUUACUACUGAGAAGGCACAUGAGGAUCACCCAUGUUCCUC [salish99_ex3_r3_096] (puzzle: Exclusion 4) | – | – | – | 23.5 nM | – | –
10 | UCGCUCCGUGUAGGAUAUCGCCGUACUAUACGGCGAGAAGGACAUGAGGAUCACCCAUGUAUGUUAUUAUCACGCGUGGCGCAA [Design 60] (Eterna round: R96, puzzle: Exclusion NG 1) | 21 nM | 22.2 nM | – | – | – | 11.5 nM
11 | AAACGGCAGGGAGGAUAUGCUUACCUGGGUCGUCUUCAGACAUGAGGAUCACCCAUGUAGUCGACGCAGAAGGCCCUCAAAGCC [JL ViennaUCT Ontiis mod 3] (Eterna round: R96, puzzle: Exclusion NG 2) | 413 nM | 51.1 nM | – | – | – | 38.7 nM
12 | UGUAACCUAGGAUAUACAUGAGGAUCACCCAUGUAAUGUAGUAUAGUGUGUGUGAGGUGUAGAAGGUGGGAUGU (Eterna round: R97, puzzle: Exclusion 3) | 60.4 nM | 60.2 nM | – | – | – | –
13 | AGAAAGCAAGGAUAUACAAGGAAACGACGGAAAGUAGAGAGACAUGAGGAUCACCCAUGUAGAAGGUGCGAGAG [JR_Exclu2_Sub033] (puzzle: Exclusion 2) | – | – | 32.1 nM | 24.5 nM | 29.1 nM | –
14 | UAACGUGGCCUGAUCCUCCCUAACAUGAGGAUCACCCAUGUCUAGGAUAUCCGAACAAACAACGAGGAGAAGGAGACGAAACAU [Veleedan] (Eterna round: R96, puzzle: Exclusion NG 3) | 37.5 nM | 28.3 nM | – | – | – | 22.7 nM
15 | AUGUAGGAAGGAUAUGCGUCGGCAUGAAAUCCUUGUUGGCCACAUGAGGAUCACCCAUGUAGAAGGUUCACGUA [Eternabot (L2) Solution 10] (Eterna round: R97, puzzle: Exclusion 2) | 48.8 nM | 52.7 nM | – | – | – | –
16 | AGAUGUAGAUGCCGAUCCUACAUGAGGAUCACCCAUGUAGCUAGACGUGCGGGCGGCGCUCGUCGGACUACCAGUAG [salish99_TOv1_r3_097] (puzzle: Sensor v3, turn-off variant 1) | – | – | 78.8 nM | 82.4 nM | 124 nM | –
17 | GAAAAGGUAGGAUAUACGAAAAAAAAGGGUAGAAAAAAAACACAUGAGGAUCACCCAUGUAGAAGGACCAAAAC [salish99_ex2_r3_052] (puzzle: Exclusion 2) | – | – | 94.7 nM | 35.3 nM | 27.8 nM | –
18 | CCUCUUGGGCAAGGAUAUCCUGCGCGGUUCCGGUUCGUGUCUGUCACAUGAGGAUCACCCAUGUGGGAGAAGGUGCCUGCGGUC [Design 78] (Eterna round: R96, puzzle: Exclusion NG 2) | – | – | – | – | – | 12 nM
19 | GAGAAGUGAGGAUAUGCGAUAAGGAUGAAAGGAAGGAAUGAGUAGAAGGCACAUGAGGAUCACCCAUGUAGAGU [JR_Exclu4_Sub080] (puzzle: Exclusion 4) | – | – | 25.3 nM | 21.3 nM | 21 nM | –
20 | CGUACUAACACGAAAGUGUUAGUACAAUAAGCUUGUGAAACAUGAGGAUCACCCAUGUCCUCAUAAGCUCGUCUUAU [salish99_TOv2_r3_007] (Eterna round: R96, puzzle: Sensor v3, turn-off variant 2) | 15.6 nM | 17.9 nM | – | – | – | 486 nM
21 | AGUUGGCGAGGAUAUACAUGAGGAUCACCCAUGUGAAAUAGAAGAGUGAGGAAGAAAAGUAGAAGGCGCUGACA [Mat - Exclusion 3 - Mod of Salish D40] (puzzle: Exclusion 3) | – | – | 134 nM | 69 nM | 107 nM | –
22 | UUAAUAUAUCAGGAUAUGAUUAUAUGUGUUAAAUCAGAAGGGAUAACAUGAGGAUCACCCAUGUUGUGGAGUGA [JR_Ex6_Sub033] (Eterna round: R97, puzzle: Exclusion 6) | 303 nM | 92.8 nM | – | – | – | –
23 | AGAUGGCGAGGAUAUACAUGAGGAUCACCCAUGUGAAGAUAAUAAGUGAGGAAGAAAAGUAGAAGGCGCUGUCA [Mat - Exclusion 3 - Mod of Salish D26] (puzzle: Exclusion 3) | – | – | 398 nM | 72.6 nM | 70.4 nM | –
24 | GAGAUGUGAGGAUAUCUAGACCGCGAAAGAGCCGCGGUCCGAGAGAAGGCACAUGAGGAUCACCCAUGUGAUGA [Tiesri] (puzzle: Exclusion 4) | – | – | – | 39.4 nM | – | –
25 | CCGGAAAUGCAGGAUAUCGUAUCGGAAACGAUACGAGAAGGGUAUACAUGAGGAUCACCCAUGUGUCCUACCGG [Fiskers Ex 6 - 21] (puzzle: Exclusion 6) | – | – | – | 20.6 nM | – | –
26 | GGUCUACAUGAGGAUCACCCAUGUCAGGAUAUCGUGUGUUUUUUUUCGGCCGCGCGUGCGAGAAGGGACGUCUU (puzzle: Exclusion 1) | – | – | – | 16.6 nM | – | –
